One experiment concerns the target T1, Bak (Homo sapiens, UniProt Q16611).
T1 sequence (Q16611 1-211): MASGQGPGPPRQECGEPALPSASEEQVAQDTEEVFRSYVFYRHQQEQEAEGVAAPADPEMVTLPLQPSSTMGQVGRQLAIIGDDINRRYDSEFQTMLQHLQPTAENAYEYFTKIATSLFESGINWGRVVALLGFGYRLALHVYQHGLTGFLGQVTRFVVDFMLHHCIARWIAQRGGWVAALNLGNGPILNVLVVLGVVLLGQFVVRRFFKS
The experiment is described as follows: Bak-induced apoptosis in transfected cells. The format is cell-based. Also on record: expressed in transfected cells. The following applies: CSM14.1 or PC-3 cells, transient co-transfection. How it is done:
(A-D) CMS14.1 neuronal cells were transfected with plasmids encoding Flag-HN peptide or Flag-control (27-amino-acid) peptide, together with GFP-encoding plasmid at 4:1 ratio. Cells were either cultured without further treatment (open bars) or subjected to various apoptotic stimuli for various times (dark bars), including (A) STS for 8 h (dark symbols=Flag-control; open symbols=Flag-HN), (B) Serum-deprivation for 72 h, (C) 10 joules/m2 Uvirradiation followed by 24 h culture, and (D) 50 ng/ml TNFa in […] for 24 h. Cells were then fixed and stained with DAPI to determine the percentage of apoptotic cells, evaluating=200 GFP-positive cells per sample (mean±SD; n=3). (inset) Lysates prepared from replicate cultures of transfected cells were normalized for total protein content and analyzed by immunoblotting using anti-Flag (top) and anti-tubulin (bottom) antibodies, confirming production of similar amounts of Flag-control and Flag-HN peptides. […] (Upper panel) After 72 hr, cell lysates were prepared and 100 ug was analyzed by immunoblotting using anti-HN and anti-tubulin (as a loading control) antibodies. (Lower panel) At 72 hr after siRNA transfection, SF268 cells were cultured with 0.1 μM STS for 8 hrs, then % apoptosis was determined (mean+std dev; n=3). […] Apoptosis (%) was measured 48 hrs later among GFP-positive cells. […]

The target of a further experiment is T2, Bax (S184K) (Mus musculus, UniProt Q07813, S184K).
T2 construct: expressed in transfected cells; host or cells: S. cerevisiae EGY48
T2 sequence (Q07813 whole entry S184K): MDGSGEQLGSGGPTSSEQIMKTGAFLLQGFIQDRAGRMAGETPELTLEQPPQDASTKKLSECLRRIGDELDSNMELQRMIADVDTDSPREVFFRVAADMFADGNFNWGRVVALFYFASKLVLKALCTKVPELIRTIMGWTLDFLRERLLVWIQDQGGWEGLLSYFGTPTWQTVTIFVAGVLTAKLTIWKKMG
Kind of experiment: Yeast two-hybrid assay. The following applies: EGY48 cells, pGilda-Bax (S184K) and pYESTrp-Humanin. The format is binding. From the text:
A yeast two-hybrid system is designed to screen a cDNA library for a gene encoding a polypeptide that interacts with a known target (bait) polypeptide (Golemis, et al., In Current Protocols in Molecular Biology, John Wiley & Sons, Inc., Ch.20.0 and 20.1.(1996); Mendelsohn and Brent, Current Opinion in Biotechnology 5:482-486 (1994)). In this experiment, a S184K (a serine at position 184 in the transmembrane domain mutated to a lysine) mutant of mouse Bax was used as a bait, since the wild type Bax induces cell death in yeast.
Bax (S184K) cDNA was constructed in a pgilda yeast expression vector at EcoRV Xhol sites, producing a LexA-Bax fusion polypeptide. The prokaryotic LexA polypeptide, which functions as the DNA binding domain and binds to LexA operators, was used. A human adult testes cDNA library in a pYESTrp vector was purchased from Invitrogen. This library contains library cDNA fused with a B42 transcription activation domain (an 88-residue acidic E. coli peptide). The pGilda-Bax (S184K) and cDNA library plasmids were co-transfected into EGY48 yeast cells together with a reporter plasmid pSH18-34. The transformants were cultured on leucine-deficient galactose-containing media, which induces gene expression through the GAL1 promoter located within both the pGilda and pYESTrp vectors. […]

Take “GFP-HN: Wild-type full-length Humanin fused to Green Fluorescent Protein”: in the experiment with Bak, the Bak-induced apoptosis entry is on record as “not affected”. With “Humanin: 24 amino acid polypeptide, cytosolic form of human Humanin (SEQ ID NO:2); used as synthetic peptide or expressed fusion”, the “yeast growth on Leu-deficient media (two-hybrid interaction)” value in the experiment with Bax (S184K) is on record as “grew on Leu-media”.
